According to patent US5854025:
Each block holds one substance with its values, some of them ahead of it.

Columns and labels:
[1] = molecular target: type 2 IGF receptor on H35 (rat hepatoma) cells (rat); experiment: displacement of 125I-IGF-II from H35 cells (type 2 IGF receptor); refolded preparation
[2] = molecular target: type 2 IGF receptor on H35 (rat hepatoma) cells (rat); experiment: displacement of 125I-IGF-II from H35 cells (type 2 IGF receptor); secreted preparation
[3] = molecular target: insulin receptor on H35 cells (rat) (UniProt P15127); experiment: displacement of 125I-insulin from H35 cells (insulin receptor)
[4] = molecular target: type 2 IGF receptor on H35 (rat hepatoma) cells (rat); experiment: displacement of 125I-IGF-II from H35 cells (type 2 IGF receptor)

Sequence of IGF-II (Q^37 Q^38) (ligand) (chain): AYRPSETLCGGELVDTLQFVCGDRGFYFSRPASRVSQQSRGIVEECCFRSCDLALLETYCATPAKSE
Sequence of recombinant IGF-II from a commercial supplier (Bachem), reference standard (ligand) (chain): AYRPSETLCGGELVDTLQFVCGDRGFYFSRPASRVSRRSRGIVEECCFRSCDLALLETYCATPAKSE

IC50 [1]: 0.06 µg/mL
IC50 [2]: 0.03 µg/mL
Substance: IGF-II (Q^37 Q^38) (ligand)

IC50 [3]: 0.0048 µg/mL
Substance: insulin (ligand)

IC50 [4]: 0.018 µg/mL
Substance: recombinant IGF-II from a commercial supplier (Bachem), reference standard (ligand)

IC50 [4]: 0.03 µg/mL
Substance: wild-type IGF-II, refolded material (made by the HRP fusion route, pSD28, cyanogen bromide cleavage and refolding) (ligand)
